B1: Hairpin Ribozyme (parent)
chain: GUCCUCUUUCACGUGCGCGUGAAAGAGAGAAGUGAACCAGAGAAACACACGUUGUGGUAUAUUACCUGGUA

Variants of: B1
Experiment: self-cleavage, relative activity (ratio to wild type); higher = more cleavage; co-transcriptional

Row | Variant | self-cleavage
1 | GUCCUCUUUCACGUGCGCGUGAAAGAGAGAAGUGAACCAGAGAAACACACAUUGUGGUAUAUUACCUGGUC [G51A A71C] | 1.49
2 | GUCCUCUUUCACGUGCGCGUGAAAGAGAGAAGUGAACCAGAGAAACACACAUUGUGGAAUAUUACCUGGUA [G51A U58A] | 0.674
3 | GUCCUCUUUCACGUGCGCGUGAAAGAGAGAAGUGAACCAGAGAAACACACAUUGUGGUAUAUCACCUGGUA [G51A U63C] | 0.109
4 | GUCCUCUUUCACGUGCGCGUGAAAGAGAGAAGUGAACCAGAGAAACACACAUUGUGGUAUAUAACCUGGUA [G51A U63A] | 0.175
5 | GUCCUCUUUCACGUGCGCGUGAAAGAGAGAAGUGAACCAGAGAAACACACAUUGUGGUAUGUUACCUGGUA [G51A A61G] | 0.269
6 | GUCCUCUUUCACGUGCGCGUGAAAGAGAGAAGUGAACCAGAGAAACACACAUUGUGGUAUUUUACCUGGUA [G51A A61U] | 0.192
7 | GUCCUCUUUCACGUGCGCGUGAAAGAGAGAAGUGAACCAGAGAAACACACCUUGUGGUAUGUUACCUGGUA [G51C A61G] | 0.138
8 | GUCCUCUUUCACGUGCGCGUGAAAGAGAGAAGUGAACCAGAGAAACACAUGUUGGGGUAUAUUACCUGGUA [C50U U55G] | 0.368
9 | GUCCUCUUUCACGUGCGCGUGAAAGAGAGAAGUGAACCAGAGAAACACAUGUUGUGGUAUAUUACCUGGCA [C50U U70C] | 0.34
10 | GUCCUCUUUCACGUGCGCGUGAAAGAGAGAAGUGAACCAGAGAAACACAUGUUGUGGUAUAUUACCUGGGA [C50U U70G] | 0.178
11 | GUCCUCUUUCACGUGCGCGUGAAAGAGAGAAGUGAACCAGAGAAACACACAUUGUGGUAUAUUACCUUGUA [G51A G68U] | 0.474
12 | GUCCUCUUUCACGUGCGCGUGAAAGAGAGAAGUGAACCAGAGAAACACACAUUGUGGUAUAUUACCUAGUA [G51A G68A] | 0.555
13 | GUCCUCUUUCACGUGCGCGUGAAAGAGAGAAGUGAACCAGAGAAACACACAUUGUGGUAUAUUACCUCGUA [G51A G68C] | 0.31
14 | GUCCUCUUUCACGUGCGCGUGAAAGAGAGAAGUGAACCAGAGAAACACACAUUGUGGUACAUUACCUGGUA [G51A U60C] | 0.944
15 | GUCCUCUUUCACGUGCGCGUGAAAGAGAGAAGUGAACCAGAGAAACACACAUUGUGGUAAAUUACCUGGUA [G51A U60A] | 1.18
16 | GUCCUCUUUCACGUGCGCGUGAAAGAGAGAAGUGAACCAGAGAAACACACAUUGUGGUAGAUUACCUGGUA [G51A U60G] | 0.672
17 | GUCCUCUUUCACGUGCGCGUGAAAGAGAGAAGUGAACCAGAGAAACACACAUUGCGGUAUAUUACCUGGUA [G51A U55C] | 0.405
18 | GUCCUCUUUCACGUGCGCGUGAAAGAGAGAAGUGAACCAGAGAAACACACAUUGAGGUAUAUUACCUGGUA [G51A U55A] | 0.34
19 | GUCCUCUUUCACGUGCGCGUGAAAGAGAGAAGUGAACCAGAGAAACACACAUUGGGGUAUAUUACCUGGUA [G51A U55G] | 0.407

Row | Variant | self-cleavage
20 | GUCCUCUUUCACGUGCGCGUGAAAGAGAGAAGUGAACCAGAGAAACACACAUUGUGAUAUAUUACCUGGUA [G51A G57A] | 0.142
21 | GUCCUCUUUCACGUGCGCGUGAAAGAGAGAAGUGAACCAGAGAAACACACAUUGUGCUAUAUUACCUGGUA [G51A G57C] | 0.158
22 | GUCCUCUUUCACGUGCGCGUGAAAGAGAGAAGUGAACCAGAGAAACACACAUUGUGGUAUAUUACCUGAUA [G51A G69A] | 0.596
23 | GUCCUCUUUCACGUGCGCGUGAAAGAGAGAAGUGAACCAGAGAAACACACAUUGUGGUAUAUUACCUGUUA [G51A G69U] | 0.439
24 | GUCCUCUUUCACGUGCGCGUGAAAGAGAGAAGUGAACCAGAGAAACACACCUUGUGGUCUAUUACCUGGUA [G51C A59C] | 0.14
25 | GUCCUCUUUCACGUGCGCGUGAAAGAGAGAAGUGAACCAGAGAAACACACAUUGUGGUAUAUUCCCUGGUA [G51A A64C] | 0.173
26 | GUCCUCUUUCACGUGCGCGUGAAAGAGAGAAGUGAACCAGAGAAACACACAUUGUGGUAUAUUACCGGGUA [G51A U67G] | 0.628
27 | GUCCUCUUUCACGUGCGCGUGAAAGAGAGAAGUGAACCAGAGAAACACACAUUGUGGUAUAUUACGUGGUA [G51A C66G] | 0.611
28 | GUCCUCUUUCACGUGCGCGUGAAAGAGAGAAGUGAACCAGAGAAACACAUGUUGUGGUAUAUUACCUAGUA [C50U G68A] | 0.194
29 | GUCCUCUUUCACGUGCGCGUGAAAGAGAGAAGUGAACCAGAGAAACACACAUUGUCGUAUAUUACCUGGUA [G51A G56C] | 0.148
30 | GUCCUCUUUCACGUGCGCGUGAAAGAGAGAAGUGAACCAGAGAAACACAUGUUGUGGUAUAGUACCUGGUA [C50U U62G] | 0.158
31 | GUCCUCUUUCACGUGCGCGUGAAAGAGAGAAGUGAACCAGAGAAACACAUGUUGUGGUAUACUACCUGGUA [C50U U62C] | 0.0808
32 | GUCCUCUUUCACGUGCGCGUGAAAGAGAGAAGUGAACCAGAGAAACACAUGUUGUGGUACAUUACCUGGUA [C50U U60C] | 0.729
33 | GUCCUCUUUCACGUGCGCGUGAAAGAGAGAAGUGAACCAGAGAAACACAUGUUGUGGUAGAUUACCUGGUA [C50U U60G] | 0.205
34 | GUCCUCUUUCACGUGCGCGUGAAAGAGAGAAGUGAACCAGAGAAACACAUGUUGUGGUAUAUUACCCGGUA [C50U U67C] | 0.157
35 | GUCCUCUUUCACGUGCGCGUGAAAGAGAGAAGUGAACCAGAGAAACACAUGUUGUGGAAUAUUACCUGGUA [C50U U58A] | 0.194
36 | GUCCUCUUUCACGUGCGCGUGAAAGAGAGAAGUGAACCAGAGAAACACAUGUUGUGGCAUAUUACCUGGUA [C50U U58C] | 0.232
37 | GUCCUCUUUCACGUGCGCGUGAAAGAGAGAAGUGAACCAGAGAAACACACAUUGUGGUUUAUUACCUGGUA [G51A A59U] | 0.178
38 | GUCCUCUUUCACGUGCGCGUGAAAGAGAGAAGUGAACCAGAGAAACACACAUUGUGGUGUAUUACCUGGUA [G51A A59G] | 0.25

From the RNAGym collection of RNA variant scans (doi:10.7554/elife.80360)
